The text below walks through data of patent US20210038648A1 (THOMAS JEFFERSON UNIVERSITY, published 2021).

The target of test [1] is T1, recombinant 6xHis-tagged hGUCY2C extracellular domain (6xHis-hGUCY2CECD) (human, UniProt P25092 24-430).
T1 construct: extracellular domain; also called purified hGUCY2C extracellular domain; immobilized hGUCY2CECD protein; not shown: 6xHis tag
The test can be described thus: ELISA; plate coated with 6xHis-hGUCY2CECD, 5F9-rFc titrated.

The target of test [2] is T2, human GUCY2C (hGUCY2C) on cells (human, UniProt P25092 24-1073).
T2 construct: whole, on cells; also called guanylyl cyclase C; GCC
T2 sequence (P25092 24-1073): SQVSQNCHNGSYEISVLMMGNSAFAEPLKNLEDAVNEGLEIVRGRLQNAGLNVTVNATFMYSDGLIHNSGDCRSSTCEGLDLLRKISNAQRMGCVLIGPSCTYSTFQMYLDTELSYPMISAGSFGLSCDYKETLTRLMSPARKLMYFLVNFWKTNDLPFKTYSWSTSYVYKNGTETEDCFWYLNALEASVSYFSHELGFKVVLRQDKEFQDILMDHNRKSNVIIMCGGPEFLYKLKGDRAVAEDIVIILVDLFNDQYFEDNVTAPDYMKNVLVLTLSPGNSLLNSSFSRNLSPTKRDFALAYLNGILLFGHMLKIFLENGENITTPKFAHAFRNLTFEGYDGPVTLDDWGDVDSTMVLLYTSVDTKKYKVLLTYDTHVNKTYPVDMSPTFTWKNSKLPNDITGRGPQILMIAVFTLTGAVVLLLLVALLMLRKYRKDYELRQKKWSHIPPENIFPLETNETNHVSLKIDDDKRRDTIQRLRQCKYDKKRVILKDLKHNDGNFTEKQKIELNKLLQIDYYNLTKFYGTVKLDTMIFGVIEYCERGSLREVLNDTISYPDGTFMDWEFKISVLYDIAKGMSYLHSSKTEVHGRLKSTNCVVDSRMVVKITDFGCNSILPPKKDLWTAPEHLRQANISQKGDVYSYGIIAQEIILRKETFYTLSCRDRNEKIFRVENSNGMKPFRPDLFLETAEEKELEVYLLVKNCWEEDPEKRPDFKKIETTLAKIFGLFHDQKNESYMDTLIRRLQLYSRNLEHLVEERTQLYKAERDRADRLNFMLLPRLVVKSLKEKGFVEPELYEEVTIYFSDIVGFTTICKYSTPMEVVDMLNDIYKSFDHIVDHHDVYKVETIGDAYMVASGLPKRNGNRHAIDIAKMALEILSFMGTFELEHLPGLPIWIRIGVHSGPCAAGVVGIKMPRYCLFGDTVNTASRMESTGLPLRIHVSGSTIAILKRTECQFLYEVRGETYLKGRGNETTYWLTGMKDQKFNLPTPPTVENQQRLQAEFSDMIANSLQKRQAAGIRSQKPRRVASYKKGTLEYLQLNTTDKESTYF
The test can be described thus: flow cytometry on CT26.hGUCY2C cells. From the text: Cells were authenticated by the original suppliers and routinely authenticated by morphology, growth, antibiotic resistance (where appropriate GUCY2C and β-galactosidase expression, and pattern of metastasis in vivo and routinely screened for mycoplasma using the Universal Mycoplasma Detection Kit (ATCC, Cat. No. 30-1012K). Before injection into mice, cells were routinely cultured for <2weeks. The gene encoding human GUCY2C was codon-optimized and synthesized (Gene Art, Life Technologies) and cloned into the retroviral construct pMSCVpuro (Clontech). CT26.hGUCY2C and CT26.CL25.hGUCY2C were generated by transducing CT26 and CT26.CL25 cells with retroviral supernatants encoding hGUCY2C, followed by selection with puromycin. […] The single chain variable fragment (scFv) from the human GUCY2C-specific antibody 5F9 was cloned into the pFUSE-rIgG-Fc2 (IL2ss) plasmid (Invivogen), producing a 5F9 scFv fusion protein with rabbit Fc (5F9-rFc), 5F9-rFc was collected in supernatants of transfected 293F cells (Life Technologies), titrated in ELISA plates (Nunc-Immuno PolySorp) coated with BSA or recombinant 6×His-tagged hGUCY2C extracellular domain (6×His-hGUCY2CECD) protein purified under contract from HEK293-6E cells by GenScript and detected with HRP-conjugated goat anti-rabbit (Jackson ImmunoResearch). […]

T1 sequence (P25092 24-430): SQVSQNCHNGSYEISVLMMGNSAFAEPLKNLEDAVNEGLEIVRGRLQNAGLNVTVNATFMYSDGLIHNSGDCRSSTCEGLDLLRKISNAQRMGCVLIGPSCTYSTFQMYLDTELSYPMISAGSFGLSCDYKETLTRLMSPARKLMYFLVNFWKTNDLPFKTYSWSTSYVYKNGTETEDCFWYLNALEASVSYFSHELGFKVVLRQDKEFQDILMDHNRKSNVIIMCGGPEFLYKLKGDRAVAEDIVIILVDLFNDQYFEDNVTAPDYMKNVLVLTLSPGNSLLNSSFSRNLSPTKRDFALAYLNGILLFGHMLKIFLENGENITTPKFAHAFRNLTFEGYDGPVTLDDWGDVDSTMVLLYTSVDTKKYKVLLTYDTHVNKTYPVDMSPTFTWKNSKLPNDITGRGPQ

B1: 5F9 scFv fusion protein with rabbit Fc (5F9-rFc) (Fc fusion)
chain: EIVMTQSPATLSVSPGERATLSCRASQSVSRNLAWYQQKPGQAPRLLIYGASTRATGIPARFSGSGSGTEFTLTIGSLQSEDFAVYYCQQYKTWPRTFGQGTNVEIKASGGGGSGGGGSGGGGSGGGGSELQVQLQQWGAGLLKPSETLSLTCAVFGGSFSGYYWSWIRQPPGKGLEWIGEINHRGNTNDNPSLKSRVTISVDTSKNQFALKLSSVTAADTAVYYCARERGYTYGNFDHWGQGTLVTVSS
notes: Secreted from transfected 293F cells and used as supernatant; also called recombinant 5F9 antibody; 5F9 antibody; not shown: rabbit IgG Fc from plasmid pFUSE-rIgG-Fc2 (IL2ss) (Invivogen)
In the case of B1, the binding result in test [1] and in test [2] was “binds” in each case.
